According to publication PMC2755649 (Nature cell biology, 2009):

Assays:
[1] = biological target: T1, Recombinant wild-type InlC with a C-terminal 6xHis tag (Listeria monocytogenes, UniProt P71451 35-297); assay: SPR
T1 sequence (looked up): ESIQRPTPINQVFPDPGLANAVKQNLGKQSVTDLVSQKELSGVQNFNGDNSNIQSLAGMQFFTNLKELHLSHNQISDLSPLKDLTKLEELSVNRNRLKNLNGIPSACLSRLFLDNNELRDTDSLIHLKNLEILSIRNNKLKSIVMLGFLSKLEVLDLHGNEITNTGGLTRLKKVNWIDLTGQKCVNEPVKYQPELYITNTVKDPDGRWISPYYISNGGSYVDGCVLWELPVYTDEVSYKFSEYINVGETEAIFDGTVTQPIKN

[2] = biological target: T2, Recombinant InlC.K173A with a C-terminal 6xHis tag (Listeria monocytogenes, UniProt P71451 35-297, K173A); assay: SPR
T2 sequence (looked up): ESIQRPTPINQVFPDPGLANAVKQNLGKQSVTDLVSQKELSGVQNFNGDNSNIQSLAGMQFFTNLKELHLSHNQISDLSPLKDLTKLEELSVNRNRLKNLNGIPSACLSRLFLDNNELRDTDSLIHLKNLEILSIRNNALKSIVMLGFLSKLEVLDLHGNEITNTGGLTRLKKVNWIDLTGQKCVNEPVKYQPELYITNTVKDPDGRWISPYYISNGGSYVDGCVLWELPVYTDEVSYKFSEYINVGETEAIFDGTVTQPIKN

B1: SH36 protein of Tuba linked to the biosensor chip (domain or fragment, human, UniProt Q6XZF7 1513-1577, looked up)
chain: EGNQVYFAVYTFKARNPNELSVSANQKLKILEFKDVTGNTEWWLAEVNGKKGYVPSNYIRKTEYT
Binder B1 has a Kd [1] of 9 ± 3.5 µM and a Kd [2] of 58 ± 12.3 µM.
